Values of other authors, collected in patent US20070140974A1, “Targeted nanoparticles for magnetic resonance imaging” (General Electric Company, priority 2005, published 2007).

Key:
[1] = room temperature, 1.5 Tesla magnetic field
uPAR = uPAR (Homo sapiens, UniProt Q03405)
Chain of uPAR (Q03405 23-305): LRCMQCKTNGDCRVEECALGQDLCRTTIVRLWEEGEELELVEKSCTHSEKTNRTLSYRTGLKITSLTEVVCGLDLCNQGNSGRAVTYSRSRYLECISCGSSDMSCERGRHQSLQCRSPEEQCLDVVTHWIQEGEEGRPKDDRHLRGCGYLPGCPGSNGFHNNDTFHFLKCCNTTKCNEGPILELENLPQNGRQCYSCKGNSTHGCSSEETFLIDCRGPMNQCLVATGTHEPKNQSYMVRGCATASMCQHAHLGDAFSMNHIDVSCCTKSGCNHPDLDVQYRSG

| Molecule | R1 relaxivity [1] [mM⁻¹ s⁻¹] | binding of uPAR and inhibition of integrin or vitronectin binding (uPAR) |
| --- | --- | --- |
| O=C([O-])CN(CCN(CC(=O)[O-])CC(=O)O)CCN(CC(=O)[O-])CC(=O)O.[Gd+3] [Gd-DTPA] | 3 | – |
| AEFFKLGPNGYVYLHSA | – | capable of binding uPAR and inhibiting binding of vitronectin |
| AELDLSTFYDIQYLLRT | – | capable of binding uPAR and inhibiting binding of vitronectin |
| AEPVYQYELDSYLRSYY | – | capable of binding uPAR and inhibiting binding of vitronectin |
| AESTYHHLSLGYMYTLN | – | capable of binding uPAR and inhibiting binding of integrin |
